# Assay results: patent US20260227416A1 (published 2026)
# Target: T1, CD20 on SU-DHL4 cells (UniProt P11836 1-297, limits assumed)
# T1 sequence (looked up): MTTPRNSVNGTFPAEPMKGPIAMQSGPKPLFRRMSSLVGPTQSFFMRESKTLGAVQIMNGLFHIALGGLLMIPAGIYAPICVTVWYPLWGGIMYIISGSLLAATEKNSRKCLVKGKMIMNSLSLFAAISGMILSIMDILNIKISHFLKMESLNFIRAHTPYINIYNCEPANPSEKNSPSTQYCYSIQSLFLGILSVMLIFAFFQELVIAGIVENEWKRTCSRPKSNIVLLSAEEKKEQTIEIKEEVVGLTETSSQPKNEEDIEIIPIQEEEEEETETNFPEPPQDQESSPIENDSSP
# Test: cell-based or functional assay
binder,measurement,value
"Rituximab chimeric antibody (antibody, human IgG1, kappa, V domains shown) VH: VQLQQPGAELVKPGASVKMSCKASGYTFTSYNMHWVKQTPGRGLEWIGAIYPGNGDTSYNQKFKGKATLTADKSSSTAYMQLSSLTSEDSAVYYCARSTYYGGDWYFNVWGAGTTVTVSA VL: QIVLSQSPAILSASPGEKVTMTCRASSSVSYIHWFQQKPGSSPKPWIYATSNLASGVPVRFSGSGSGTSYSLTISRVEAEDAATYYCQQWTSNPPTFGGGTKLEIKR","EC50 values of target cell killing (ADCC, SU-DHL4 target cells)",~10 ng/mL
